Results published in patent US20190367592A1 (AC IMMUNE, published 2019).
Changes are numbered by the printed parent chain. Numbers in names are those of the source.

B1: hu37D3-H9.v5.4 (antibody, V domains shown)
VH: EVQLVESGGGLVQPGGSLRLSCAASGLIFRSYGMSWVRQAPGKGLEWVATINSGGTYTYYPDSVKGRFTISRDNSKNTLYLQMNSLRAEDTAVYYCANSYSGAMDYWGQGTLVTVSS
VL: EDVLTQTPLSLPVTPGQPASISCRSSQSIVHSQGNTYFEWYLQKPGQSPQLLIYKVSNRFSGVPDRFSGSGSGTDFTLKISRVEAEDVGVYYCFQGSLVPWTFGQGTKVEIK
B2: hu37D3.v28.A30 (antibody, V domains shown)
VH: B1 VH
VL: B1 VL with E1D, D2V, L4M, Q33N, F38L, L98H
B3: hu37D3.v28.B7 (antibody, V domains shown)
VH: B1 VH
VL: B1 VL with E1D, Q33D, Y37K
B4: hu37D3.v28.B8 (antibody, V domains shown)
VH: B1 VH
VL: B1 VL with E1D, Q33E, Y37R
B5: hu37D3-H9.v31.14 (antibody, V domains shown)
VH: B1 VH
VL: B1 VL with E1D, Q33N, G34A, T36R
B6: hu37D3-H9.v5.6 (antibody, V domains shown)
VH: B1 VH
VL: B1 VL with Q33A
B7: hu37D3-H9.v30.8 (antibody, V domains shown)
VH: B1 VH
VL: B1 VL with E1D, Q33Y
B8: hu37D3-H9.v31.1 (antibody, V domains shown)
VH: B1 VH
VL: B1 VL with E1D, Q33N, G34A, N35G
B9: hu37D3.v28.51 (antibody, V domains shown)
VH: B1 VH
VL: B1 VL with Q33H
B10: hu37D3-H9.v31.4 (antibody, V domains shown)
VH: B1 VH
VL: B1 VL with E1D, Q33N, G34A, N35P
B11: hu37D3.v28.B3 (antibody, V domains shown)
VH: B1 VH
VL: B1 VL with E1D, Y37W
B12: hu37D3-H9.v5.5 (antibody, V domains shown)
VH: B1 VH
VL: B1 VL with Q33E
B13: hu37D3.v28.B4 (antibody, V domains shown)
VH: B1 VH
VL: B1 VL with E1D, Y37H
B14: hu37D3-H9.v31.12 (antibody, V domains shown)
VH: B1 VH
VL: B1 VL with E1D, Q33N, G34A, T36Y
B15: hu37D3.v28.E3 (antibody, V domains shown)
VH: B1 VH
VL: B1 VL with E1D, H31D, Q33D
B16: hu37D3-H9.v31.13 (antibody, V domains shown)
VH: B1 VH
VL: B1 VL with E1D, Q33N, G34A, T36N
B17: hu37D3-H9.v30.7 (antibody, V domains shown)
VH: B1 VH
VL: B1 VL with E1D, Q33F
B18: hu37D3-H9.v31.10 (antibody, V domains shown)
VH: B1 VH
VL: B1 VL with E1D, Q33N, G34A, T36P
B19: hu37D3-H9.v30.9 (antibody, V domains shown)
VH: B1 VH
VL: B1 VL with E1D, Q33H
B20: hu37D3-H9.v31.11 (antibody, V domains shown)
VH: B1 VH
VL: B1 VL with E1D, Q33N, G34A, T36F
B21: hu37D3-H9.v30.6 (antibody, V domains shown)
VH: B1 VH
VL: B1 VL with E1D, Q33P
B22: hu37D3-H9.v1 hIgG1 (antibody)
heavy: not shown
light: EDQLTQSPSSLSASVGDRVTITCRSSQSIVHSNGNTYFEWYQQKPGKSPKLLIYKVSNRFSGVPSRFSGSGSGTDFTLTISSLQPEDFATYYCFQGSLVPWTFGQGTKVEIKRTVAAPSVFIFPPSDEQLKSGTASVVCLLNNFYPREAKVQWKVDNALQSGNSQESVTEQDSKDSTYSLSSTLTLSKADYEKHKVYACEVTHQGLSSPVTKSFNRGEC
notes: also called hu37D3.v1 hIgG1
B23: hu37D3.v39 hIgG4.YTE (antibody, V domains shown)
VH: B1 VH
VL: EDQLTQSPSSLSASVGDRVTITCRSSQSIVHSNGNTYLEWYQQKPGKSPKLLIYKVSNRFSGVPSRFSGSGSGTDFTLTISSLQPEDFATYYCFQGSLVPWTFGQGTKVEIKR
notes: hu37D3-H9.v1 with light chain F33L; also called hu37D3.v39 hIgG4.S228P.YTE
B24: hu37D3.v40 hIgG4.YTE (antibody, V domains shown)
VH: B1 VH
VL: B23 VL with G34T, L38F
notes: hu37D3-H9.v1 with light chain G29T; also called hu37D3.v40 hIgG4.S228P.YTE
B25: hu37D3.v41 hIgG4.YTE (antibody, V domains shown)
VH: B1 VH
VL: B23 VL with N35Q, L38F
notes: hu37D3-H9.v1 with light chain N30Q; also called hu37D3.v41 hIgG4.S228P.YTE

What follows are binders tested against T1, recombinant human Tau monomer, 2N4R isoform (amino acids 2-441) (human, UniProt P10636-8 2-441) (assay: SPR; Normalized Rmax post-stress (2 weeks 40 C) / pre-stress).
T1 construct: range 2-441; N-terminal His-tag removed with TEV protease; also called monomeric Tau
Experimental: (§1) Briefly, IgGs in 1 mL culuture were captured using tip columns that were custom packed with 20 μL MabSelect SuRe resin (Glygen Corp & GE Healthcare). After washing with 1×PBS pH 7.4, IgGs were eluted into 160 μL of 50 mM phosphoric acid pH 3 and neutralized with 12 μL of 20×PBS pH 11. MabSelect SuRe tip columns were stripped in 0.1 M NaOH and regenerated with 1×PBS pH 7.4 for consecutive use of up to 15 times. Purified antibodies in 96-well format were normalized to 0.1 mg/ml using a Hamilton Star liquid handling robot. The “pre-stress” samples were kept at approximately 4° C. and the “post-stress” samples were incubated at 40° C. for two weeks in a PCR machine. Functional stability of the variants was compared by running surface plasmon resonance kinetics experiments with the “pre-stress” and “post-stress” antibody preps. The antibodies were assessed using a human antibody capture CM5 Series S chip generated using the GE Biacore human IgG capture kit and a Biacore T200 instrument. Antibodies diluted to 2 μg/ml were immobilized using a 15 second injection time and 10 μl/min flow rate. Binding to Tau monomer at 0 nM, 26.5 nM and 265 nM, at 25° C., using a flow rate of 40 μl/min, was monitored for a 180 second association phase followed by a 300 second dissociation phase. Samples were run in 10 mM HEPES pH7.4, 150 mM NaCl, 0.05% Tween 20 (HBSP) using a multi-cycle kinetics format. Data was analyzed using BIAevaluation software, fitting a 1:1 binding model. The resulting affinity (KD) values are shown in FIG. 8A-D. A Stability Index was also calculated, using the rationale that affinity-compromised antibodies (due for example to deamidation of key residues) are expected to contribute equally to the IgG capture level (“Ligand Level”) but to contribute less to the measured Tau binding, and that this would be reflected in the experimentally derived value for Rmax. To account for variations in the amount of each antibody captured, Rmax was normalized for the antibody capture level (as measured by “Ligand Level”, Response Units immobilized during antibody capture). Thus Normalized Rmax is calculated as the experimental Rmax (units=RU) divided by the “Ligand Level” (Evaluation output representing the RU captured during the hIgG capture step, units=RU), and Stability Index is calculated here as Normalized Rmax (post-stress) divided by Normalized Rmax (pre-stress).

T1 sequence (P10636 other isoform, or with tags, fused parts or gaps limits assumed): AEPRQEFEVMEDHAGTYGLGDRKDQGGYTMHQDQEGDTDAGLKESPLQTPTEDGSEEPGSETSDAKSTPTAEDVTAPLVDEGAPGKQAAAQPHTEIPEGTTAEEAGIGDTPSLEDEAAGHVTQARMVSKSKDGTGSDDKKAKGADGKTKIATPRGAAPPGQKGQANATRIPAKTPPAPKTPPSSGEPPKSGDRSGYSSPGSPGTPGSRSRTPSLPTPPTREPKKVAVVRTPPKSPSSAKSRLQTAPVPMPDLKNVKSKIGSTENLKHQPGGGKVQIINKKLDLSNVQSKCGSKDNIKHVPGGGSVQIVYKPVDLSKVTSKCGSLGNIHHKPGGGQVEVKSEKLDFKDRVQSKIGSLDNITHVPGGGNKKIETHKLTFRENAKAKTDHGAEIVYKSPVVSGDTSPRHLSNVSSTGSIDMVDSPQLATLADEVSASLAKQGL

Stability Index | Binder
78% | B1
77% | B2
607% | B3
456% | B4
86% | B5
67% | B6
105% | B7
72% | B8
74% | B9
533% | B10
208% | B11
75% | B12
288% | B13
99% | B14
364% | B15
83% | B16
93% | B17
261% | B18
63% | B19
126% | B20
270% | B21

These binders were tested against T1, recombinant human Tau monomer, 2N4R … (assay: SPR single-cycle, human Fab capture kit, Tau monomer analyte; mean ± range, n=2).
Experimental: Affinity of the humanized antibody variants was measured at 25° C. using a Biacore T200 instrument, the GE Biacore human FAb capture kit, and a CM5 Series S chip. Antibodies were diluted to 1 μg/ml in HBSP (10 mM HEPES pH7.4, 150 mM NaCl, 0.05% Tween 20) and captured at a flow rate of 10 μl/min for 180 seconds. Kinetic data were collected for human Tau monomer injected at 1.2, 3.7, 11, 33 and 100 nM in HBSP using the Single Cycle Kinetics methodology and a flow rate of 30 μl/min. Each concentration of Tau monomer was injected for a period of 3 minutes and dissociation was monitored for ten minutes. Between cycles, the surface was regenerated with two sequential one-minute injections of 10 mM glycine pH2.1. Data was fit to a 1:1 binding model using BIAEvaluation software. Each antibody was analyzed twice within the experiment; data in Table 22 are shown as mean±range.

Kd | koff | kon | Binder
2.3 nM | 0.001 s⁻¹ | 600000 M⁻¹ s⁻¹ | B22
1.9 nM | 0.001 s⁻¹ | 600000 M⁻¹ s⁻¹ | B23
4.4 nM | 0.003 s⁻¹ | 800000 M⁻¹ s⁻¹ | B24
5.4 nM | 0.005 s⁻¹ | 900000 M⁻¹ s⁻¹ | B25

Each binder was assayed against T1, recombinant human Tau monomer, 2N4R … (assay: SPR, captured IgG, Tau monomer analyte, 1:1 model; fit-quality column: -).
Experimental: as §1

Kd | Binder
36.1 nM | B1
34.4 nM | B2
4.1 nM | B3
1.8 nM | B4
35.5 nM | B5
36.6 nM | B6
31.4 nM | B7
41.2 nM | B8
35.6 nM | B9
0.8 nM | B10
0.4 nM | B11
64.5 nM | B12
10.5 nM | B13
41.6 nM | B14
1.1 nM | B15
48.1 nM | B16
34.9 nM | B17
5.5 nM | B18
36.4 nM | B19
22.7 nM | B20
19.1 nM | B21
